Assay results taken from US20250236667A1, “ANTIBODIES TO MUTANT CALRETICULIN AND USES THEREOF” (CENTRAL ADELAIDE LOCAL HEALTH NETWORK INC, priority 2021, published 2025).

Key:
[1] = tested on: mutant CALR neoepitope peptides; assay: Binding of 4D7 to peptides covering regions of the immunizing neopeptide; set-up: species or system human
Protocol: B. Diluting concentrations of 4D7 to bound full-length 30 amino acid peptide compared to scrambled, C-terminal and N-terminal 11 amino acid peptides as shown in A (n=3). C. Scatchard analysis showing dissociation constant of 4D7 using I^125-labelled and unlabelled 4D7 bound to full-length 30 amino acid peptide (n=3). D. Histogram showing fluorescence intensity of 4D7 conjugated to phycoerythrin at a 4 μg/mL TF-1 TpoR CALR^del 61 vs TF-1 TpoR compared to unstained. E. TF-1 TpoR cells with endogenous wild type CALR cultured in the presence of TPO and 2, 10 or 20 μg/mL 4D7 anti-mutant CALR antibody or 20 μg/mL control IgG antibody (n=3). F. Proliferation curves of factor-independent TF-1 TpoR CALR^del61 cells cultured with 2, 10 or 20 μg/mL 4D7 or 20 μg/mL of control IgG antibody (n=3). G Proliferation curves of factor-independent TF-1 TpoR CALR^del52 cells cultured with 10 or 20 µg/mL 4D7 or 20 μg/mL of control IgG antibody (n=3). Data information: For panels E-G, bars represent standard error of the mean summarizing 3 independent experiments performed in triplicate, with a one-way ANOVA with Bonferroni correction used to determine statistical significance.

JAK2 V617F SET2 cells = assay: Cell proliferation, trypan blue exclusion; format: cell-based, human; settings: 2, 10 or 20 μg/mL
Protocol: (§1) A. Cytokine dependent TF-1 TpoR cells with an overexpression of WT CALR cultured in the absence of TPO, 10 ng/ml hTPO and 10 or 20 μg/mL 4D7 anti-mutant CALR antibody or 20 μg/mL control IgG antibody for 5 days and the number of trypan blue negative cells were counted every 24 hours (n=3). B. Cytokine dependent TF-1 CALR^del52 cells, lacking TpoR were cultured in the presence of 2 ng/mL GM-CSF and 10 or 20 μg/mL 4D7 or 20 μg/mL control IgG antibody (n=3). C. Cytokine dependent TF-1 CALR^del61 cells, lacking TpoR were cultured in the presence of 2 ng/ml GM-CSF and 10 or 20 μg/mL 4D7 or 20 μg/mL control IgG antibody (n=3). D. MARIMO cells from which the CALR^del61 mutation was originally amplified were cultured in the presence of 2, 10 or 20 μg/mL 4D7 or 20 μg/mL control IgG antibody (n=3). E. Cytokine independent SET2 cells which harbour the pathogenic JAK2^V617F mutation were cultured in the presence of 2, 10 or 20 μg/mL 4D7 or 20 μg/mL control IgG antibody (n=3). F. Cytokine independent TF-1 PTPN11^E76K cells were cultured in the presence of 10 or 20 μg/mL 4D7 or 20 μg/mL control IgG antibody (n=3).
(§2) In brief, cells were seeded at 5×10^4/mL in standard growth media, with any necessary cytokines, and the addition of 20 μg/mL IgG or 2, 10 or 20 μg/mL 4D7. Cells were seeded in triplicate and each well was counted in triplicate every 24 hours for 5 days using trypan blue exclusion.

MARIMO cells = assay: Cell proliferation, trypan blue exclusion; format: cell-based, human; settings: 2, 10 or 20 μg/mL
Protocol: as §1, §2

[2] = tested on: TF-1 CALR^del52 cells, lacking TpoR; assay: Cell proliferation, trypan blue exclusion; format: cell-based, human; settings: 2 ng/mL GM-CSF; 10 or 20 μg/mL
Protocol: as §1, §2

[3] = tested on: TF-1 CALR^del61 cells, lacking TpoR; assay: Cell proliferation, trypan blue exclusion; format: cell-based, human; settings: 2 ng/ml GM-CSF; 10 or 20 μg/mL
Protocol: as §1, §2

[4] = tested on: TF-1 cells with overexpression of wild type CALR; assay: Cell proliferation, trypan blue exclusion; format: cell-based, human; settings: 10 or 20 μg/mL; 10 ng/ml hTPO
Protocol: as §1, §2

[5] = tested on: TF-1 expressing the PTPN11 E76K mutation; assay: Cell proliferation, trypan blue exclusion; format: cell-based, human; settings: 10 or 20 μg/mL
Protocol: as §1, §2

[6] = tested on: TF-1 TpoR CALR^del61 cells in NSG mice; assay: Chloroma xenograft model (subcutaneous injection); format: in vivo
Protocol: All procedures were approved by the South Australian Health and Medical Research Animal Ethics Committee (Protocol SAM21-018). Bone marrow engraftment model: 4-6 week old NSG mice were x-ray irradiated with 150 cGy and 5×10^5 cells (TF-1-TpoR CALR^del61) or 5×10^4 cells (100 nM ruxolitinib resistant TF-1 TpoR CALR^del61) were intravenously injected into mice. […] Tail vein bleeds were taken at 3 weeks and analysed via flow cytometry to determine human leukaemia content in the peripheral blood. Leukemic cells were PI-, mCD45.1, hCD33+, zsGreen+. Mice were monitored daily and euthanized once clinical symptoms were observed. At the time of euthanasia, cardiac puncture was performed to obtain both peripheral blood and serum for analysis. Additionally, bone marrow from both femurs, spine and spleens were analysed for leukemic content as detailed above. Chloroma model: 4-6 week old NSG mice were anaesthetised by isoflurane inhalation and shaved on the left back/flank and 1×10^7 cells were injected into the mice. Cells were pre-treated with 20 μg/mL IgG or 4D7 for 1 hour prior to injection. […] Tumour progression was assessed through caliper measurements every 2 days. Mice were euthanised once tumours began to impede movement, show signs of ulceration or if any measurement of the tumour exceeded 30 mm (length, width or depth).

B1: 4D7: rat monoclonal IgG2a antibody against the mutant CALR neoepitope; VH SEQ ID NO: 5, VL SEQ ID NO: 7 (antibody, listed as Rattus rattus, V domains shown)
VH: QVQLQQSGAELAKPGSSVKISCKASGYTFTNYDMSWIKQRPGQALEWIGAINPGNGVTDYNEKFRGKATLTVDKSSSTAFMQLSSLTPEDTAVYHCAREYRDNYGYFDYWGQGVMVTVSS
VL: DIVLTQTPVSLSVTLGDQASISCRSSQSLEYSDGYTYLDWFLQKPGQSPQLLIYEVSSRFSGVPDRFIGRGSGTDFTLKISRVEPEDLGVYYCFQATHDPFTFGSGTKLEIK
binding to C-terminal portion of the immunogen ([1]; C-terminal 11 amino acid peptide): no binding
region of the immunizing neopeptide to which binding was mapped ([1]; peptides covering different regions of the neopeptide): 11 amino acids of the N-terminus
binding to scrambled peptide ([1]; scrambled peptide): no binding
inhibition of proliferation (JAK2 V617F SET2 cells): no inhibition
inhibition of proliferation (MARIMO cells): did not show inhibition
effect on proliferation [2]: unaffected
effect on proliferation [3]: unaffected
inhibition of proliferation [4]: No inhibition
inhibition of proliferation [5]: no inhibition
survival, hazard ratio ([6]; 4D7 vs IgG, P=0.02): 0.19
mean tumour volume ([6]; 21 days post-engraftment, 12.5 mg/kg twice weekly, P=0.04): 353 mm^3
